In patent US5935811 one finds activity (fold repression) data, which are given here for 1 substance.

This series addresses T1, NRSF/REST (lambda-HZ4 partial) (Homo sapiens) (UniProt Q13127).
T1 sequence: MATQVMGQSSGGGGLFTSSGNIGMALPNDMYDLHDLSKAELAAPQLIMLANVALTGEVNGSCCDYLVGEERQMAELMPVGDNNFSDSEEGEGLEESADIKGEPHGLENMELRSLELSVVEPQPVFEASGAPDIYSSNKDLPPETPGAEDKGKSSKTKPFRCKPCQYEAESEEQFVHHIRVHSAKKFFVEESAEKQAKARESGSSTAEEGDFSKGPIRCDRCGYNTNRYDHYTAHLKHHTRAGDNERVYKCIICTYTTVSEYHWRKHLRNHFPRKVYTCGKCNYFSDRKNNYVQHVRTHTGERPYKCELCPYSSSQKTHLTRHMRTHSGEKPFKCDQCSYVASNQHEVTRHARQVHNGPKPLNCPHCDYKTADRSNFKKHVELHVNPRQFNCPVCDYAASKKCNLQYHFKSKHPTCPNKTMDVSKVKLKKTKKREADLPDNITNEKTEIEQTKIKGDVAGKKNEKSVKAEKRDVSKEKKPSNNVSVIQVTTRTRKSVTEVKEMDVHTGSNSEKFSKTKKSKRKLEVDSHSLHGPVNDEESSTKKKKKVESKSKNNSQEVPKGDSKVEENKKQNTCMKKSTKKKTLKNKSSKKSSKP
The series can be described thus: cell_activity. The note with it: pCAT3 reporter, maximum pCMV-HZ4, PC12 cells.

Take “pCAT3 SCG10 proximal promoter without NRSE”: the activity (fold repression) amounted to 1.5.
